Data from patent US4609626A, “Method for producing S-adenosyl-L-homocysteine hydrolase” (Nippon Zeon Co., Ltd., priority 1983, dated 1986).

Experiments:
[1] = biological target: T1, S-adenosyl-L-homocysteine hydrolase (SAHase) from Alcaligenes faecalis (IFO 12669) (Alcaligenes faecalis, UniProt A0A2U2BLR9); conditions: read-out: Km for SAH; purified crystalline SAHase of Example 1
T1 sequence (A0A2U2BLR9 1-465): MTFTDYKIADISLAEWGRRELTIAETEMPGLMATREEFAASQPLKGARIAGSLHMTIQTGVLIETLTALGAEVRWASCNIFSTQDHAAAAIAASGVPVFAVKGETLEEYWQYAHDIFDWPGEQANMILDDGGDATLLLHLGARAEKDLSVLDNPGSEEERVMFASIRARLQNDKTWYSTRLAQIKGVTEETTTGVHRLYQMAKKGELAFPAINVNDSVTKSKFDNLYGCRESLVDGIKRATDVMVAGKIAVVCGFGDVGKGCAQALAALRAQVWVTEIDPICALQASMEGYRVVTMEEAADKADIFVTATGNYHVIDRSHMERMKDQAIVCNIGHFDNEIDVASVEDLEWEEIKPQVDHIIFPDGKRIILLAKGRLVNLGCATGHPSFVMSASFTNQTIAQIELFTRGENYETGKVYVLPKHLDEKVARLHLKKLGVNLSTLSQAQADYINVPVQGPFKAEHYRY
Procedure: (§1) Then, the reaction is stopped by adding 0.1 ml of 30% perchloric acid. Then, 0.9 ml of 0.5M phosphate buffer (pH 7.0) was added to the reaction mixture. The resulting precipitate is removed by centrifugal separation. The supernatant obtained is analyzed by high-performance liquid chromatography (Model 638-30 made by Hitachi Limited; column Cosmocil 5C18 ; eluent 0.2M KH2 PO4 /methanol=90/10 (V/v); detector UV 260 nm) to determine the amount of SAH produced. The SAH synthesizing enzyme activity is expressed in units. One unit is defined as the amount of the enzyme which is required to form 1 micromole of SAH per minute.
(§2) SAH is reacted with SAHase, and the resulting AdR is converted to inosine in the presence of an excess of adenosine deaminase. The speed of the decrease of the absorbance at 265 nm at this time is measured. Specifically, 475 microliters of 10 mM phosphate buffer, 10 microliters of 2.5 mM SAH, 5 microliters of adenosine deaminase (Type III produced by Sigma Company) and 10 microliters of an enzyme solution are reacted at 25° C., and the speed of the decrease of the absorbance at 265 nm at this time is measured to determine the amount of SAH hydrolyzed. The SAH hydrolysis enzyme activity is expressed in units. One unit is defined as the amount of the enzyme which is required to hydrolyze 1 micromole of SAH per minute.

[2] = substrate: N[C@@H](CCS)C(=O)O; assay: purified protein, by the assay type; conditions: other: purified crystalline SAHase of Example 1
[3] = substrate: Nc1ncnc2c1ncn2[C@@H]1O[C@H](CO)[C@@H](O)[C@H]1O; assay: purified protein, by the assay type; conditions: other: purified crystalline SAHase of Example 1
Procedure: as §1, §2

Molecule	Km [1] [µM]	Km [2] [µM]	Km [3] [µM]
Nc1ncnc2c1ncn2[C@@H]1O[C@H](CSCC[C@H](N)C(=O)O)[C@@H](O)[C@H]1O [SAH, S-adenosyl-L-homocysteine]	10	–	–
S-adenosyl-L-homocysteine hydrolase (SAHase) from Alcaligenes faecalis (IFO 12669) (Alcaligenes faecalis) (protein) MTFTDYKIADISLAEWGRRELTIAETEMPGLMATREEFAASQPLKGARIAGSLHMTIQTGVLIETLTALGAEVRWASCNIFSTQDHAAAAIAASGVPVFAVKGETLEEYWQYAHDIFDWPGEQANMILDDGGDATLLLHLGARAEKDLSVLDNPGSEEERVMFASIRARLQNDKTWYSTRLAQIKGVTEETTTGVHRLYQMAKKGELAFPAINVNDSVTKSKFDNLYGCRESLVDGIKRATDVMVAGKIAVVCGFGDVGKGCAQALAALRAQVWVTEIDPICALQASMEGYRVVTMEEAADKADIFVTATGNYHVIDRSHMERMKDQAIVCNIGHFDNEIDVASVEDLEWEEIKPQVDHIIFPDGKRIILLAKGRLVNLGCATGHPSFVMSASFTNQTIAQIELFTRGENYETGKVYVLPKHLDEKVARLHLKKLGVNLSTLSQAQADYINVPVQGPFKAEHYRY	–	930	37
